Assay results as given in US20150290345A1.

Target: Recombinant Human ErbB2/Fc Chimera (R&D Systems, Inc.) (human) (UniProt P04626)
Experiment: SPR, ProteOn XPR36; ErbB2/Fc amine-coupled on GLM chip (about 3000 RU), 1:1 Langmuir fit

Kd [nM] | Substance
0.24 | L2-ICG-HSA (Affibody-immobilized ICG-HSA, SM(PEG)2 linker at 100 times the molar amount of ICG-HSA) (from UniProt P02768 25-609)
2.3 | L1-ICG-HSA (Affibody-immobilized ICG-HSA, SM(PEG)2 linker at 10 times the molar amount of ICG-HSA) (from UniProt P02768 25-609)
